Patent US20090162369A1, “SYNTHETIC CHIMERIC PEPTIDES” (priority 2007, published 2009)

Experiments:
p145 = p145 (Streptococcus pyogenes serotype M5, UniProt P02977); settings: FIG. 3
Description: The purified anti-TN peptide antibodies were tested for their ability to bind to p145.

GAS = settings: cited from earlier work
multiple isolates of GAS = settings: Pruksakorn et al., 1994a; cited from earlier work
B10.BR mice = assay: Peptide-specific serum IgG titres of B10.BR mice immunised with peptides conjugated to diphtheria toxoid; assay type: in vivo; settings: peptides conjugated to DT
Text: FIG. 9: The geometric mean of peptide-specific serum IgG titres of B10.BR mice immunised with different peptides conjugated to diphtheria toxoid (DT). Control mice were immunised with vehicle (PBS). Five mice were immunised per group and error bars show the standard error of the mean (SEM). The highest titres were obtained after primary immunisation plus two booster injections. Although titres had decreased 43 days after the final boost (Day 71), they remained reasonably high.
Female B10.BR mice were immunized with TN18, TN19, J18 and J19 peptides conjugated to diphtheria toxoid (DT). The following immunization protocol was used.
The peptide specific titres in the murine sera samples on day 35, after primary immunization and two boosters, were analyzed.
The self-peptide titres throughout the immunization protocol were analyzed at day 20, day 27, day 35 and day 71.

| Sequence | binding affinity of purified anti-TN peptide antibodies for p145 (p145) | also measured |
| --- | --- | --- |
| LRRDLDAEDEAKKQVEKALEC [TN peptide 3] | highest binding affinities |  |
| LRRDLDAEREAKKQVERALEC [TN peptide 5] | highest binding affinities |  |
| LRRDLDASNEAKKQVEMALEC [TN peptide 14] | highest binding affinities |  |
| LRRDLDASREAKKQVEKALE [p145] |  | inhibition of in vitro killing mediated by human sera (GAS): can inhibit in vitro killing mediated by human sera; opsonisation and killing of GAS by mouse antibodies raised against the peptide (multiple isolates of GAS): can opsonise and kill multiple isolates of GAS |
| LRRDLDASREAKNQVEMALEC [TN peptide 19] | highest binding affinities |  |
| LRRDLDASREAKNQVERALEC [TN peptide 18] | highest binding affinities |  |
| LRRDLDAVNEAKKQVEKALEC [TN peptide 7] | highest binding affinities |  |
| LRRDLDAVREAKKQVEMALEC [TN peptide 11] | highest binding affinities |  |
| QAEDKVKQSREAKNQVEMALKQLEDKVQ [J19] |  | immunogenicity compared with the peptides disclosed in WO96/11944 (B10.BR mice): improved immunogenicity |
| QAEDKVKQSREAKNQVERALKQLEDKVQ [J18] |  | immunogenicity compared with the peptides disclosed in WO96/11944 (B10.BR mice): improved immunogenicity |
